Tests used:
[1] = system: carotid artery crush injury, vascular occlusion; assay: Modified rabbit carotid artery crush injury model; format: in vivo, New Zealand White rabbits; settings: 2-13.5 μg/kg
Method: Zsig37 was administered in a modified rabbit carotid artery injury model (Folts et al., Circulation 79:116 (1989), and Golino et al., Thrombosis and Haemostasis 67:302 (1992)) to determine the degree of protection offered in preventing vascular occlusion following a crush injury.
Thirty-four male New Zealand White rabbits, approximately three to six months old (R&R Rabbitry; Stanwood, Wash.) were divided into two groups. Fifteen rabbits received doses of zsig37 ranging from 2-13.5 μg/kg and 19 control rabbits were injected with PBS or equivalent amounts of PBS or zsig39, another adipocyte complement related protein (WO99/10492). The rabbits were anesthetized with ketamine (50 mg/kg, IM) and maintained on halothane inhalation anesthesia for the duration of the study. The hair was shaved from the ears and neck and an angiocatheter was placed in the marginal ear vein for IV support. A midline incision was made in the neck and the carotid artery was accessed. Approximately 5 cm of the common carotid artery proximal to the internal/external bifurcation was exposed via blunt dissection away from the surrounding tissue and any visible side branches were cauterized. A flow probe (Transonic Systems, Inc.; Ithaca N.Y.) was placed distal to the anticipated injury site and a baseline blood flow was established. A 2.5-3.0 cm section of the vessel was then isolated from circulation using atraumatic vascular clamps. Following removal of the blood from the vessel segment, 0.4 ml of zsig37 in 0.9% sodium chloride or […] 0.9% sodium chloride as a control, was injected into the empty vessel segment using a 30 G needle. The vessel was left undisturbed for a five-minute pre-injury treatment. A 1.0 cm crush injury was then inflicted into the center of the vessel segment using a guarded hemostat and left undisturbed for 10 minutes. The vessel clamps were then removed and blood flow reestablished. Blood flow was monitored continuously for 60 minutes after which time the rabbits were euthanized and the vessel excised for histological analysis.

[2] = system: RAW 264.7 (ATCC No. CRL-2278); assay: Binding of zsig37 to RAW 264.7 monocyte/macrophage line; settings: mouse monocyte/macrophage line
Source text: This could potentially result in zsig37 involvement in monocyte phagocytosis, microbial killing, and cellular cytotoxicity. Following the two days in culture, there are macrophages present in the culture and zsig37 may be binding preferentially to this subset of cells. Zsig37 also bound to a mouse monocyte/macrophage line, RAW 264.7 (ATCC No. CRL-2278), indicating macrophage specificity.

TF-1 cells = assay: Adhesion and spreading of TF-1 cells on zsig37-coated plates; format: cell-based; settings: addition of soluble zsig37
Method: The ability of zsig37 to stimulate adhesion and spreading of TF-1 cells was assayed as follows. A series of dilutions were prepared from C-terminal Glu-Glu-tagged zsig37, from 10 to 0.0625 ’g/ml, in either PBS or ELISA coating buffer (0.1 M NaCO3) and each was plated into a 96 well plate (Costar; Pleasanton, Calif.) at 100 μl/well. The plates were incubated at 37° C., 5% CO2 for 2 hours. The plates were then washed 3× with RPMI/10% FBS (RPMI 1640, 2 mM L-glutamine, 110 μg/ml sodium pyruvate, PSN and 10% heat inactivated fetal bovine serum) and allowed to block for 15 minutes.
TF-1 cells (derived from acute myeloid leukemia cells) were resuspended in RPMI/10% FBS and plated into at 10,000 cells/well into the zsig37CEE-coated 96 well plates at a final volume of 120 μl/well. The plate was incubated at 37° C. under 5% CO2 for 2 hours. The plates were then washed 3× with PBS and 200 μl/well growth media (RPMI/10% FBS, 5 ng/ml GM-CSF) was added. The cells were microscopically inspected before and after the wash.
A dye incorporation assay was also used to measure the number of adherent cells based on a colorimetric change and an increase in fluorescent signal. ALAMAR BLUE (AccuMed; Chicago, Ill.) was added to the 96 well plates and the cells were incubated at 37° C. under 5% CO2 overnight. […]

[3] = system: atherosclerotic rabbit femoral/iliac artery crush injury; assay: Atherosclerotic Folts model, blood flow; format: in vivo, New Zealand White rabbits; settings: 1 mg/kg bolus, n=8, vs 1 mg/kg BSA; p=0.0305
Source text: In the present experiment the standard Folts model was modified to study restenosis in rabbits. In this design, New Zealand White rabbits that normally are not prone to atherosclerosis were fed an atherogenic diet (e.g., 2% cholesterol and 6% coconut oil) for two weeks, underwent balloon denudation of an artery segment and then were continually fed the atherogenic diet. Within three weeks, atherosclerotic plaque had accumulated in the balloon-injured area. At this time, the animal was prepped for surgery and the atherosclerotic vessel was injured via a crush procedure and a Folts model study was performed.
Eleven male New Zealand White rabbits weighing 2.0-2.5 kg were used in this study. Atherosclerosis was developed in the right iliac and femoral arteries following a protocol described by Faxon et al., Am J. Cardiol., 1984, 53:72C-76C; and Faxon et al., Atherosclerosis. 1982, 2:125-133), with the following modifications. […]
Animals were administered 100 U/kg heparin. […] The flow rate was monitored and the vessel tapped to release the thrombus when the flow rate approached 0.7 ml/min. […] Blood flow through the injured vessel was monitored for 60 minutes post bolus infusion. […] Blood pressure was monitored throughout and, prior to termination, blood samples for coagulation factors were collected. […]
Statistical Analysis. All values are expressed as mean±SEM. […]

B1: zsig37: adipocyte complement related protein homolog, polypeptide of SEQ ID NO:2, inhibits collagen-mediated platelet activation and the complement pathway (protein, listed as Homo sapiens)
chain: MGSRGQGLLLAYCLLLAFASGLVLSRVPHVQGEQQEWEGTEELPSPPDHAERAEEQHEKYRPSQDQGLPASRCLRCCDPGTSMYPATAVPQINITILKGEKGDRGDRGLQGKYGKTGSAGARGHTGPKGQKGSMGAPGERCKSHYAAFSVGRKKPMHSNHYYQTVIFDTEFVNLYDHFNMFTGKFYCYVPGLYFFSLNVHTWNQKETYLHIMKNEEEVVILFAQVGDRSIMQSQSLMLELREQDQVWVRLYKGERENAIFSEELDTYITFSGYLVKHATEP
dose dependency of time patent [1]: No dose dependency was seen | mean percent time patent ([1]; combined zsig37 treated groups, 60 minutes, standard error ±10.3%, controls 13.5%): 37.2% | time patent compared to controls (meta analysis of all doses) ([1]; unpaired t-test P=0.019): significant increase in time patent | binding to RAW 264.7 [2]: bound | block of cell adhesion to bound zsig37 by soluble zsig37 (TF-1 cells): did not block adhesion | blood flow in final 30 minutes [3]: continuously patent

From patent US20060252692A1, “Inhibitors for use in hemostasis” (ZymoGenetics, Inc., priority 2002, published 2006)
